Biological target: T1, Manduca sexta cadherin protein fragment (CR7–CR12) (Manduca sexta)
T1 construct: Manduca sexta cadherin receptor, fragment CR7–CR12, residues 810–1480; also called cadherin fragment; cadherin receptor fragment
Experiment: ELISA; 1 μg of cadherin fragment coated per well; toxin or protoxin dilutions in PBS, 1 h at 37°C; detected with polyclonal anti-Cry1Ab antibody; Scatchard analysis; apparent Kd
Conditions: both partners purified

B1: trypsin-activated Cry1Ab toxin (domain or fragment)
chain: not shown
modifications: Wild-type toxin cut from the protoxin by trypsin. Limits are not given; the conventional Cry1A trypsin core is used (cut after R28, C-terminal end near residue 619). Subspecies is not printed …
Q: B1 was tested. Which Kd did it give?
A: The Kd was 3.3 ± 0.6 nM.

From PMC3969221, “Bacillus thuringiensis Cry1A toxins are versatile proteins with multiple modes of action: two distinct pre-pores are involved in toxicity” (Biochemical Journal, 2014)
